Here are results for two molecules from patent US20250101080A1 (BIOSCEPTRE AUST, published 2025).

Test [1] deals with T1, dysfunctional (non-functional) P2X7 receptor expressed on human cancer cells (human, UniProt Q99572 1-595).
T1 sequence: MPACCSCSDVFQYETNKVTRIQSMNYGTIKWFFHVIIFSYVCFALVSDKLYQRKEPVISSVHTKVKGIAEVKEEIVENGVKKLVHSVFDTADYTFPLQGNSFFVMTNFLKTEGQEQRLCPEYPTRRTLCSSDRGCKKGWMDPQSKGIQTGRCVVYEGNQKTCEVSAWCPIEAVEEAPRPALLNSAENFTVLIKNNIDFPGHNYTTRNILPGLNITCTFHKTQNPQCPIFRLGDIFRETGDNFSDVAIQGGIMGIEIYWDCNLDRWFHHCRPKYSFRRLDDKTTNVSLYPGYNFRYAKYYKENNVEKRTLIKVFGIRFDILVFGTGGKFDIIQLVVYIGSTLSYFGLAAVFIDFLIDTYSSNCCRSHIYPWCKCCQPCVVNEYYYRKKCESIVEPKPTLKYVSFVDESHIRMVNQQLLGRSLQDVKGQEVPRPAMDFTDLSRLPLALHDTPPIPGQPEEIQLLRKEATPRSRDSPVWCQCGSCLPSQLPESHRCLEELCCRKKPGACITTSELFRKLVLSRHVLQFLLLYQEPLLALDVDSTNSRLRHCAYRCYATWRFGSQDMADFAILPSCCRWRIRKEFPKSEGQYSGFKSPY
Put plainly: cell-based or functional assay.

The target in test [2] is T2, EXD2_K193A (nf-P2X7) surface fusion protein on HEK293 cells (human, UniProt Q99572 47-332).
T2 sequence: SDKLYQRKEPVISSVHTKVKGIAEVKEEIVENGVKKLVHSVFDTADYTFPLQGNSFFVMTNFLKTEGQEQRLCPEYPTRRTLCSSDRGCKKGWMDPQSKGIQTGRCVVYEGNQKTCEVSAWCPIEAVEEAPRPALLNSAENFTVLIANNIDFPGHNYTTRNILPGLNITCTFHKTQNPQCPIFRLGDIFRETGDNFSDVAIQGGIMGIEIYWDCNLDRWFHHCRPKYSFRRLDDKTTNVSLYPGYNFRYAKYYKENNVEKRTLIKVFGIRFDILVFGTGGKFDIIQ
Put plainly: cell-based or functional assay.

B1: PEP2-2-1-1 CAR (other)
chain: EVQLLESGGGLVQPGGSLRLSCAASGFTFRNHDMGWVRQAPGKGLEWVSAISGSGGSTYYADSVKGRFTISRDNSKNTLYLQMNSLRAEDTAVYYCAEPKPMDTEFDYRSPGTLVTVSSGGGESKYGPPCPSCPAPPVAGPSVFLFPPKPKDTLMISRTPEVTCVVVDVSQEDPEVQFNWYVDGVEVHNAKTKPREEQFNSTYRVVSVLTVLHQDWLNGKEYKCKVSNKGLPSSIEKTISKAKGQPREPQVYTLPPSQEEMTKNQVSLTCLVKGFYPSDIAVEWESNGQPENNYKTTPPVLDSDGSFFLYSRLTVDKSRWQEGNVFSCSVMHEALHNHYTQKSLSLSLGKPFWVLVVVGGVLACYSLLVTVAFIIFWVRSKRSRLLHSDYMNMTPRRPGPTRKHYQPYAPPRDFAAYRSRDQRLPPDAHKPPGGGSFRTPIQEEQADAHSTLAKIRVKFSRSADAPAYQQGQNQLYNELNLGRREEYDVLDKRRGRDPEMGGKPRRKNPQEGLYNELQKDKMAEAYSEIGMKGERRRGKGHDGLYQGLSTATKDTYDALHMQALPPR
As to B1, the “fold change in cell killing against empty vector transduced CD8 T cells (CytoTox 96 assay, 4 hours, 1:1 ratio, MDA-MB-231 cells)” value in test [1] is approximately 2.5 fold. Besides, the “fold change in cell killing against empty vector transduced CD8 T cells (CytoTox 96 assay, 4 hours, 1:1 ratio)” value in test [2] is approximately 15 fold.

B2: PEP2-472-2 CAR (other)
chain: EVQLLESGGGLVQPGGSLRLSCAASGYTFPMKDMGWVRQAPGKGLEWVSAISGSGGGTYYADSVKGRFTISRDNSKNTLYLQMNSLRAEDTAVYYCAEPKPMDTEFDYRSPGTLVTVLEGGGESKYGPPCPSCPAPPVAGPSVFLFPPKPKDTLMISRTPEVTCVVVDVSQEDPEVQFNWYVDGVEVHNAKTKPREEQFNSTYRVVSVLTVLHQDWLNGKEYKCKVSNKGLPSSIEKTISKAKGQPREPQVYTLPPSQEEMTKNQVSLTCLVKGFYPSDIAVEWESNGQPENNYKTTPPVLDSDGSFFLYSRLTVDKSRWQEGNVFSCSVMHEALHNHYTQKSLSLSLGKPFWVLVVVGGVLACYSLLVTVAFIIFWVRSKRSRLLHSDYMNMTPRRPGPTRKHYQPYAPPRDFAAYRSRDQRLPPDAHKPPGGGSFRTPIQEEQADAHSTLAKIRVKFSRSADAPAYQQGQNQLYNELNLGRREEYDVLDKRRGRDPEMGGKPRRKNPQEGLYNELQKDKMAEAYSEIGMKGERRRGKGHDGLYQGLSTATKDTYDALHMQALPPR
Turning to B2, the “fold change in cell killing against empty vector transduced CD8 T cells (CytoTox 96 assay, 4 hours, 1:1 ratio, MDA-MB-231 cells)” value in test [1] is approximately 2.25 fold. For the same molecule, in test [2], the “fold change in cell killing against empty vector transduced CD8 T cells (CytoTox 96 assay, 4 hours, 1:1 ratio)” value was approximately 11 fold.
